Patent publication US11872270B2, “A*03 restricted peptides for use in immunotherapy against cancers and related methods” (Immatics Biotechnologies GmbH, priority 2018, dated 2024)

Key:
CD8+ T cells = experiment: In vitro T-cell priming assay (immunogenicity) with aAPCs loaded with peptide/MHC complexes and anti-CD28 antibody; type: cell-based, human; settings: for Wells positive [%]: in vitro immunogenicity; for in vitro immunogenicity (peptide-specific CD8+ T cell response): healthy donors, multimer staining after three cycles of stimulation
HLA-A*03:01 = HLA-A*03:01 (Homo sapiens, UniProt P04439); experiment: MHC binding assay (UV-ligand exchange, β2m ELISA); settings: for Peptide exchange (MHC class I binding score, peptide exchange yield): binding to HLA-A*03:01, UV-ligand exchange, β2m ELISA
Procedure, shortened: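 Peptide-MHC complexes formed by UV-ligand exchange of a UV-cleavable peptide for the test peptide; exchange yield quantified by β2m ELISA. Streptavidin-coated capture, samples diluted 100-fold, 1 h at 37 °C, HRP anti-β2m detection, TMB read at 450 nm against HLA-A*02:01/MLA-001 monomer standards (15–500 ng/ml).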

[1] = HLA-A*03 restricted peptides, Table 10b

| Substance | Peptide exchange (MHC class I binding score, peptide exchange yield) (HLA-A*03:01) | other results |
| --- | --- | --- |
| 29 (KVLSILSRLK; listed as Homo sapiens) [compound 29] | +++ (>50 = +++) | Wells positive [%] (CD8+ T cells; [1]): “+” (1-19% = +) |
| 33 (KLLEDMVEK; listed as Homo sapiens) [compound 33] | ++ (>20% = ++) | Wells positive [%] (CD8+ T cells; [1]): “+” (1-19% = +) |
| 45 (KCYEVGMMK; listed as Homo sapiens) [compound 45] | ++++ (>75% = ++++) | Wells positive [%] (CD8+ T cells; [1]): “+” (1-19% = +) |
| 46 (VVTGNVPLK; listed as Homo sapiens) [compound 46] | +++ (>50 = +++) | Wells positive [%] (CD8+ T cells; [1]): “+” (1-19% = +) |
| 52 (GMYEYGSIEK; listed as Homo sapiens) [compound 52] | ++++ (>75% = ++++) | Wells positive [%] (CD8+ T cells; [1]): “+” (1-19% = +) |
| 57 (RVLYRPQLEK; listed as Homo sapiens) [compound 57] | +++ (>50 = +++) | Wells positive [%] (CD8+ T cells; [1]): “+” (1-19% = +) |
| 64 (SVLSRMLVR; listed as Homo sapiens) [compound 64] | ++++ (>75% = ++++) | Wells positive [%] (CD8+ T cells; [1]): “+” (1-19% = +) |
| 69 (GLSTILLYH; listed as Homo sapiens) [compound 69] | ++++ (>75% = ++++) | Wells positive [%] (CD8+ T cells; [1]): “+” (1-19% = +) |
| 71 (VLYELGIIGNNK; listed as Homo sapiens) [compound 71] | +++ (>50 = +++) | Wells positive [%] (CD8+ T cells; [1]): “+” (1-19% = +) |
| 77 (VVDDSQLPK; listed as Homo sapiens) [compound 77] | ++ (>20% = ++) | Wells positive [%] (CD8+ T cells; [1]): “+” (1-19% = +) |
| 81 (HLFLPFSYK; listed as Homo sapiens) [compound 81] | ++++ (>75% = ++++) | Wells positive [%] (CD8+ T cells; [1]): “+” (1-19% = +) |
| 213 (KLYPTHACR; listed as Homo sapiens) [compound 213] | ++++ (>75% = ++++) | – |
| 214 (KLFTSVFGVGLK; listed as Homo sapiens) [compound 214] | ++++ (>75% = ++++) | Wells positive [%] (CD8+ T cells; [1]): “+” (1-19% = +) |
| 215 (KIWQNLRLK; listed as Homo sapiens) [compound 215] | +++ (>50 = +++) | – |
| 216 (RVSSVKLISK; listed as Homo sapiens) [compound 216] | +++ (>50 = +++) | – |
| 217 (RVYEGDGRNSLK; listed as Homo sapiens) [compound 217] | +++ (>50 = +++) | – |
| 218 (KAFNQSSIFTK; listed as Homo sapiens) [compound 218] | +++ (>50 = +++) | – |
| 219 (ALERKFRQK; listed as Homo sapiens) [compound 219] | ++++ (>75% = ++++) | – |
| 220 (ALPRQAFHSK; listed as Homo sapiens) [compound 220] | ++++ (>75% = ++++) | – |
| 221 (RLAVSTRGK; listed as Homo sapiens) [compound 221] | ++++ (>75% = ++++) | – |
| 222 (RSNPYFQNK; listed as Homo sapiens) [compound 222] | ++++ (>75% = ++++) | – |
| 223 (GISNPITTSK; listed as Homo sapiens) [compound 223] | ++++ (>75% = ++++) | – |
| 224 (SLYDGFLSY; listed as Homo sapiens) [compound 224] | ++++ (>75% = ++++) | – |

| Substance | Peptide exchange (MHC class I binding score, peptide exchange yield) (HLA-A*03:01) | other results |
| --- | --- | --- |
| 225 (RVYPRPPSKTY; listed as Homo sapiens) [compound 225] | ++++ (>75% = ++++) | – |
| 226 (RVWLGKHYK; listed as Homo sapiens) [compound 226] | ++++ (>75% = ++++) | – |
| 232 (AVAPPTPASK; listed as Homo sapiens) [compound 232] | – | Wells positive [%] (CD8+ T cells; Table 10a): + (<20% = +) |
| 233 (KTYETNLEIKK; listed as Homo sapiens) [compound 233] | – | Wells positive [%] (CD8+ T cells; Table 10a): + (<20% = +) |
| 234 (VVFPFPVNK; listed as Homo sapiens) [compound 234] | – | Wells positive [%] (CD8+ T cells; Table 10a): + (<20% = +) |
| 237 (VLYGPAGLGK; listed as Homo sapiens) [compound 237] | – | Wells positive [%] (CD8+ T cells; Table 10a): + (<20% = +) |
| 248 (GLASRILDAK; listed as Homo sapiens) [compound 248] | – | Wells positive [%] (CD8+ T cells; Table 10a): + (<20% = +) |
| 249 (ATSGVPVYK; listed as Homo sapiens) [compound 249] | – | Wells positive [%] (CD8+ T cells; Table 10a): ++++ (>=70% = ++++) |
| 252 (AVYNYPEGAAY; listed as Homo sapiens) [compound 252] | ++++ (>75% = ++++) | – |
| 253 (KLSLSHKK; listed as Homo sapiens) [compound 253] | +++ (>50 = +++) | – |
| 254 (SVLDKLLFH; listed as Homo sapiens) [compound 254] | ++++ (>75% = ++++) | – |
| 256 (AVIGALLAVGATK; listed as Homo sapiens) [compound 256] | +++ (>50 = +++) | – |
| 258 (QVRDTLKIVFK; listed as Homo sapiens) [compound 258] | +++ (>50 = +++) | – |
| 259 (RSYVPLAH; listed as Homo sapiens) [compound 259] | ++++ (>75% = ++++) | – |
| 261 (AVAQKLLSH; listed as Homo sapiens) [compound 261] | ++++ (>75% = ++++) | – |
| 262 (TMWQIPQEFVK; listed as Homo sapiens) [compound 262] | ++++ (>75% = ++++) | – |
| 271 (RLPLRVVKH; listed as Homo sapiens) [compound 271] | ++++ (>75% = ++++) | – |
| 272 (AVCGGVLVH; listed as Homo sapiens) [compound 272] | ++++ (>75% = ++++) | – |
| ATSGVPVYK (listed as Homo sapiens) [SEQ ID NO: 249] | – | in vitro immunogenicity (peptide-specific CD8+ T cell response) (CD8+ T cells): peptide-specific in vitro CD8+ T cell responses |
| AVCGGVLVH (listed as Homo sapiens) [SEQ ID NO: 272] | – | binding to HLA-A*03 (HLA-A*03:01): binds to HLA-A*03 |
| GLASRILDAK (listed as Homo sapiens) [SEQ ID NO: 248] | – | in vitro immunogenicity (peptide-specific CD8+ T cell response) (CD8+ T cells): peptide-specific in vitro CD8+ T cell responses |
| RLPLRVVKH (listed as Homo sapiens) [SEQ ID NO: 271] | – | binding to HLA-A*03 (HLA-A*03:01): binds to HLA-A*03 |
